For two substances, reduction of total binding relative to PTH1R-WT, PTH(1-34)-induced recruitment of β-arrestin2^rLucII to endosomes (BRET with rGFP-FYVE), fold-BRET increase from baseline and PTH(1-34)-induced recruitment of β-arrestin2^rLucII to the plasma membrane (BRET with rGFP-CAAX), fold-BRET increase from baseline results are on record in article PMC10238420, “Altered Signaling and Desensitization Responses in PTH1R Mutants Associated with Eiken Syndrome” (Communications Biology, 2023).

Experiment [1] deals with PTH1R-E35K (human PTH1R with an HA tag) (human) (UniProt Q03431). Briefly: radioligand binding; total binding of ^125I-PTHrP(1-36) (20,000-30,000 cpm/well) to confluent monolayers of intact, transiently transfected Gs22a cells in 96-well plates; HB (Hanks balanced salt solution, 10 mM HEPES pH 7.4, 0.1% BSA); one hour at room temperature.
In experiment [2] the target is PTH1R-Y134S (human PTH1R with an HA tag) (human) (UniProt Q03431). Described as above.
Experiment [3] concerns the target PTH1R-R485X (human PTH1R with an HA tag, C-terminal tail truncated at R485) (human) (UniProt Q03431).
In experiment [4] the target is human PTH1R-WT with an HA tag (parathyroid hormone receptor type 1) (human) (UniProt Q03431).

Sequence of β-arrestin2-renilla luciferase (rLucII) (P32121 whole entry): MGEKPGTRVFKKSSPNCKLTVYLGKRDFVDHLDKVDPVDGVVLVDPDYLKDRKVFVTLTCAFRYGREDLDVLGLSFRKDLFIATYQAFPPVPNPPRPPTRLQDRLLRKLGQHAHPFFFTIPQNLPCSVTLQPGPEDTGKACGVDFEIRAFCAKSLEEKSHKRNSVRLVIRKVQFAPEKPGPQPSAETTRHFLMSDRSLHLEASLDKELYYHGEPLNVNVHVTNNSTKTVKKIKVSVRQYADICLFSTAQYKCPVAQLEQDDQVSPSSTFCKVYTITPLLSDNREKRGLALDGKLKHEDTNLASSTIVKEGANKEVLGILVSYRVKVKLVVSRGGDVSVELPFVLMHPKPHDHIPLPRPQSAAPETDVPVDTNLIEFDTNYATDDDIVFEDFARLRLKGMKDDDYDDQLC
Sequence of ^125I-PTHrP(1-36) (peptide) (P12272 37-72): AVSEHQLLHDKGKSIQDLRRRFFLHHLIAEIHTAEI

Take ^125I-PTHrP(1-36) (peptide): the reduction of total binding relative to PTH1R-WT in experiment [1] and in experiment [2] was 50% in each case.
Consider “β-arrestin2-renilla luciferase (rLucII) (from UniProt P32121 1-409) (natural protein)”, for which, in experiment [3], the PTH(1-34)-induced recruitment of β-arrestin2^rLucII to endosomes (BRET with rGFP-FYVE), fold-BRET increase from baseline turned out to be 1.33 fold and the PTH(1-34)-induced recruitment of β-arrestin2^rLucII to the plasma membrane (BRET with rGFP-CAAX), fold-BRET increase from baseline came to 2.69 fold. Also, in experiment [4], the PTH(1-34)-induced recruitment of β-arrestin2^rLucII to endosomes (BRET with rGFP-FYVE), fold-BRET increase from baseline came to 6.08 fold and the PTH(1-34)-induced recruitment of β-arrestin2^rLucII to the plasma membrane (BRET with rGFP-CAAX), fold-BRET increase from baseline is 4.79 fold.
